Assay results from patent publication US7820179B2, “Pegylated PTH as PTH receptor modulators and uses thereof” (Eli Lilly and Company, priority 2006, dated 2010).
Like-named read-outs stand apart in the source and are kept apart here. No end group written: not given here.

Experiments:
[1] = system: aged osteopenic ovariectomized rats; assay: Weekly PTH(1-34) in aged osteopenic ovariectomized rats; assay type: in vivo, rat
Description: Six-month old ovariectomized Sprague-Dawley rats are maintained on a 12 hr light/dark cycle at 22° C. with ad lib access to food (TD 89222 with 0.5% Ca and 0.4% P, Teklad, Madison, Wis.) and water. Ovariectomized rats are allowed to lose bone for 1 month, before treatment with rhPTH (1-34) for the following 3 months. The aged osteopenic ovariectomized rats are injected subcutaneously, weekly, with 0, 10 or 30 μg/kg human PTH(1-34) for 12 weeks. Sham and ovx controls are injected with the vehicle only. Lumbar vertebra are excised at necropsy and analyzed by micro-CT (Stratec), and then prepared for biomechanical testing. Strength in Newtons, (N), is evaluated by loading vertebra specimens to failure. Significance with respect to ovx vehicle controls is indicated by * in Table 7 below (Fishers PLSD, P<0.05).

[2] = 5 μg/kg/d (1 nmol/kg/d); cited from earlier work
[3] = system: aged osteopenic ovariectomized rats; conditions: 5 μg/kg/d, aged osteopenic ovariectomized rat model, literature; cited from earlier work
[4] = system: aged osteopenic ovariectomized rats; assay: Direct comparison of 2 kD and 5 kD pegylated SEQ ID NO: 1 in aged osteopenic ovariectomized rats; assay type: in vivo, rat; conditions: for Serum Calcium: 24 hours after dosing
Excerpt: A compound of the invention with SEQ ID NO: 1, wherein the mPEG to which it is conjugated is a 2 kD mPEG, is directly compared to a compound of the invention with SEQ ID NO: 1, wherein the mPEG to which it is conjugated is a 5 kD mPEG. Aged osteopenic ovariectomized rats are permitted to lose bone for one month before dosing (nmol/kg as in Table 5 and 6) every 6 days with vehicle alone, or the 2 kD pegylated SEQ ID NO: 1 compound or the 5 kD pegylated SEQ ID NO: 1 compound for 8 weeks.

[5] = system: aged osteopenic ovariectomized rats; assay: Aged osteopenic ovariectomized rats: vertebral BMD/BMC, bone biomechanical strength, serum calcium; assay type: in vivo, rat; conditions: for Hypercalcemic Dose/Femoral Neck Strength Dose / Hypercalcemic Dose/Midshaft Strength Dose / Hypercalcemic Dose/Vertebral BMC Dose / Hypercalcemic Dose/Vertebral BMD Dose / Hypercalcemic Dose/Vertebral Strength Dose: derived from Table 3; for Vertebral BMC Dose: dose at which Sham level of vertebral BMC is achieved; for Vertebral BMD Dose: dose at which Sham level of vertebral BMD is achieved, s.c. every 6 or 7 days for two months; for Fem Neck Strength Dose: dose at which femoral neck strength comparable to sham vehicle control and positive control is achieved; for Midshaft Strength Dose: dose at which midshaft strength comparable to sham vehicle control and positive control is achieved; for Vertebral Strength Dose: dose at which vertebral strength comparable to sham and positive control is achieved; for Hypercalcemia Dose: sera 24 hours after administration, > means highest dose tested, not reached
Description: Hypercalcemia is defined herein as the upper 97.5 percentile serum calcium value of normal ovariectomized vehicle controls for the animal type used, using clinical chemistry data and sera collected from cardiac puncture (International Federation of Clinical Chemistry, H E Solberg in Tietz Fundamentals of Clinical Chemistry, 5th edition, Burtis C A and Ashwood E R, editors, 2001, pp 251-261). The value reflecting the 97.5 percentile is 11.2 mg of calcium per dL of serum from ovx vehicle control. The “Hypercalcemic Dose”, i.e., the dose at which hypercalcemia is observed 24 hours after injection of the test compound using clinical chemistry data and sera collected from cardiac puncture, is determined by interpolation, using regression analysis to fit the calcemic dose response observed 24 hours after administering the compound to ovariectomized rats.
Female Sprague-Dawley rats about 6 months of age are ovariectomized, except for sham controls, and maintained on a 12 hour light/dark cycle at 22° C. with ad lib access to food (TD 89222 with 0.5% Ca and 0.4% P, Teklad, Madison, Wis.) and water. Ovariectomized (Ovx) rats are allowed to lose bone for one month before treatment with compounds of the invention for two additional months. The compound to be tested is subcutaneously administered at various doses (as indicated in Table 3 below) in a vehicle of 20 mM NaH2PO4 in 0.9% NaCl, 3 mg/ml mannitol, pH 5, every 6 or 7 days for two months. Sham and Ovx controls are treated with the vehicle only (“sham vehicle control” and “ovx vehicle control”). Sera are then collected by cardiac puncture under isoflurane anesthesia at necropsy, and analyzed using a clinical chemistry analyzer. Lumbar vertebra L4-6 and left femora are removed, cleaned of soft-tissue and stored in 50% ethanol/saline at 4° C. At room temperature, L-5 in 50% EtOH/saline are wrapped in Parafilm and centered with respect to the QCT gantry (Research M, Stratec). A coronal scout scan of the L-5 vertebra is generated first in 2D before 3D analysis. QCT parameters are measured including BMD (mg/cc), BMC (mg), and cross-sectional area (mm^2). Lumbar vertebra L-5, femoral midshaft, and proximal femur are then prepared for biomechanical testing. Strength (N) is evaluated by loading the specimens to failure as described previously (Sato, et al., Endocrinology, […]:4330-4337, 1997).
Pegylated compounds of the invention are evaluated in this assay relative to a positive control of 3-5 μg/kg/d PTH(1-38). PTH(1-34) and PTH(1-38) are found to be indistinguishable in terms of skeletal efficacy or calcemic effects in osteopenic ovariectomized rats. It has been previously shown that rats administered 5 μg/kg/d (1 nmol/kg/d) PTH(1-34) have a systemic exposure that is about 3 times that of PTH(1-34) (i.e., FORTEO™) in humans (Tashjian and Chabner, J. Bone Miner Res, 17:1151-1161, 2002; Tashjian and Gagel, J. Bone Miner Res, 21:354-365, 2006). […] This is confirmed for PTH(1-38) in this model with a dosing of 3-5 μg/kg/d.

[6] = target: T1, PTHR1 (PTH Receptor 1) (Homo sapiens, UniProt Q03431); assay: PTH receptor internalization in HEK 293 cells transfected with PTHR-emGFP; assay type: cell-based; conditions: 100 nM
T1 construct: host or cells: HEK 293 cells
T1 sequence (Q03431 27-593): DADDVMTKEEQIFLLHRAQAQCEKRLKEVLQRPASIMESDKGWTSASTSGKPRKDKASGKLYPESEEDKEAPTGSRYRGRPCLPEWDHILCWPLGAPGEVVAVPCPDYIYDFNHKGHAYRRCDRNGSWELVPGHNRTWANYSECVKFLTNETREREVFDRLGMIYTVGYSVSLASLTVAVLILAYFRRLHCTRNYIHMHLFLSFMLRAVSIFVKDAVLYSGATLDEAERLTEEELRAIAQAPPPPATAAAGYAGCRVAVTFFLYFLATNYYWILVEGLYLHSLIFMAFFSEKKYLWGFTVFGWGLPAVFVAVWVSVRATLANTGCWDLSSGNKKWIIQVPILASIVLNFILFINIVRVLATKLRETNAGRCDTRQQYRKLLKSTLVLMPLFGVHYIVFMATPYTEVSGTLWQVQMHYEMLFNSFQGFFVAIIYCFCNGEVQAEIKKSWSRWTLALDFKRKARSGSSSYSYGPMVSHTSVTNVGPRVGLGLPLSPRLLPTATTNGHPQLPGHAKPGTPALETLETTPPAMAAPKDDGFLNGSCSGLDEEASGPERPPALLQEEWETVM
Description: The kinetics of PTHR1 (PTH Receptor 1) internalization for compounds of the invention are determined following ligand binding to membrane receptors. HEK 293 cells are transfected with PTHR-emGFP plasmid (Invitrogen).
The cells are seeded at 7,000 cells/well, 100 μL/well into clear bottomed, black, 96 well plate coated with poly-D lysine. 24 hours after being seeded into the 96 well plate, the cells are dosed with 10 μL of a compound to be tested, at final concentrations of 100 nM at staggered time points from 0 minutes to 3 hours. Media is aspirated at end point of dosing. Cells are fixed with 100 μL Prefer (Anatech, Battle Creek, Mich.) for 30 minutes. Prefer is aspirated from the cells, and cells are washed three times with 100 μL 1×PBS. Cells are stained with 100 μL diluted Hoechst nuclear stain (diluted in 1×PBS) for 30 minutes. Hoechst stain is aspirated and replaced with 1×PBS. Plates are stored in the dark at 4° C. until scanning. Cells are scanned within 48 hours using a Cellomics® ArrayScan. Representative data from various timepoints, set forth as percent of vehicle only control (baseline=100%), are presented in Table 8.

[7] = up to 30 ug/kg (7 nmol/kg), 12 weeks of treatment
[8] = 11 nmol/kg every 6 days for 8 weeks
[9] = 32 nmol/kg every 6 days for 8 weeks
[10] = 110 nmol/kg every 6 days for 8 weeks

Row | Compound | Hypercalcemic Dose/Femoral Neck Strength Dose [5] | Hypercalcemic Dose/Midshaft Strength Dose [5] | Hypercalcemic Dose/Vertebral BMC Dose [5] | Hypercalcemic Dose/Vertebral BMD Dose [5] | Hypercalcemic Dose/Vertebral Strength Dose [5] | Vertebral BMC Dose [5] [nmol/kg] | Vertebral BMD Dose [5] [nmol/kg] | Fem Neck Strength Dose [5] [nmol/kg] | Midshaft Strength Dose [5] [nmol/kg] | Vertebral Strength Dose [5] [nmol/kg] | Hypercalcemia Dose [5] [nmol/kg] | PTHR1 internalization, percent of vehicle only control (baseline=100%) ([6]; 20 min) [%] | PTHR1 internalization, percent of vehicle only control (baseline=100%) ([6]; 40 min) [%] | PTHR1 internalization, percent of vehicle only control (baseline=100%) ([6]; 60 min) [%] | PTHR1 internalization, percent of vehicle only control (baseline=100%) ([6]; 180 min) [%] | further results
1 | CC[C@H](C)[C@H](NC(=O)[C@H](CCC(=O)O)NC(=O)[C@H](CO)NC(=O)[C@@H](NC(=O)[C@@H](N)CO)C(C)C)C(=O)N[C@@H](CCC(N)=O)C(=O)N[C@@H](CC(C)C)C(=O)N[C@@H](CCSC)C(=O)N[C@@H](Cc1cnc[nH]1)C(=O)N[C@@H](CC(N)=O)C(=O)N[C@@H](CC(C)C)C(=O)NCC(=O)N[C@@H](CCCCN)C(=O)N[C@@H](Cc1cnc[nH]1)C(=O)N[C@@H](CC(C)C)C(=O)N[C@@H](CC(N)=O)C(=O)N[C@@H](CO)C(=O)N[C@@H](CCSC)C(=O)N[C@@H](CCC(=O)O)C(=O)N[C@@H](CCCN=C(N)N)C(=O)N[C@H](C(=O)N[C@@H](CCC(=O)O)C(=O)N[C@@H](Cc1c[nH]c2ccccc12)C(=O)N[C@@H](CC(C)C)C(=O)N[C@@H](CCCN=C(N)N)C(=O)N[C@@H](CCCCN)C(=O)N[C@@H](CCCCN)C(=O)N[C@@H](CC(C)C)C(=O)N[C@@H](CCC(N)=O)C(=O)N[C@@H](CC(=O)O)C(=O)N[C@H](C(=O)N[C@@H](Cc1cnc[nH]1)C(=O)N[C@@H](CC(N)=O)C(=O)N[C@@H](Cc1ccccc1)C(=O)O)C(C)C)C(C)C [PTH(1-34)] | – | – | – | – | – | – | – | – | – | – | – | – | – | – | – | Vertebral strength: Average Load to Failure ([1]; 10 ug/kg s.c. weekly for 12 weeks): 222 N; Vertebral BMD: Average BMD ([1]; 10 μg/kg s.c. weekly for 12 weeks): 534 mg/mL; Vertebral strength: Average Load to Failure ([1]; 30 ug/kg s.c. weekly for 12 weeks): 243 N; Vertebral BMD: Average BMD ([1]; 30 μg/kg s.c. weekly for 12 weeks): 529 mg/mL; Serum Calcium ([1]; approximately 24 hours after the last dose): normal; Effect on vertebral BMD relative to Ovx vehicle controls [1, 7]: no significant effect; Effect on vertebral biomechanical strength relative to Ovx vehicle controls [1, 7]: no significant effect; Systemic exposure in rats relative to PTH(1-34) (FORTEO) in humans [2]: about 3 times; Restoration of vertebral BMD from Ovx to sham vehicle control levels [3]: restore vertebral BMD from Ovx to sham vehicle control levels
2 | SEQ ID NO: 1 with 2 kD mPEG (SVSEIQLMHNLGRHLASMERVEWLRKLLQDVHNF-NH2; not fully specified (residue 26)) | >10.0 | >3.43 | >3.43 | >1.0 | >10.0 | 32 | 110 | 11 | 32 | 11 | >110 | – | – | – | – | Vertebral BMD [4, 8]: 590 mg/cc; Serum Calcium [4, 8]: 10.45 mg/dL; Vertebral BMD [4, 9]: 603 mg/cc; Serum Calcium [4, 9]: 10.38 mg/dL; Vertebral BMD [4, 10]: 623 mg/cc; Serum Calcium [4, 10]: 10.25 mg/dL; Hypercalcemia at the highest dose tested ([5]; aged Ovx rats): absence of hypercalcemia
3 | SEQ ID NO: 1 but unpegylated and Lysine at amino acid 26: unpegylated molecule with the backbone of SEQ ID NO: 1 with a lysine residue at position 26 (SVSEIQLMHNLGRHLASMERVEWLRKLLQDVHNF-NH2) | – | – | – | – | – | – | – | – | – | – | – | 106 | 126 | 113 | 142 | –
4 | PTH(1-38): positive control, parathyroid hormone fragment 1-38 (SVSEIQLMHNLGKHLNSMERVEWLRKKLQDVHNFVALG) [reference compound] | – | – | – | – | – | – | – | – | – | – | – | 166 | 177 | 224 | 175 | Restoration of vertebral BMD from Ovx to sham vehicle control levels ([5]; 3-5 μg/kg/d, positive control): confirmed
5 | SEQ ID NO: 3 with 2 kD mPEG (PVSEIQLMHNLGRHLASMERVEWLRKLLQDVHNF-NH2; also: 2 kD mPEG, site not given here) | 8.8 | 8.8 | 8.8 | >0.9 | >0.9 | 11 | >110 | 11 | 11 | >110 | 97 | – | – | – | – | –
